The values below come from the supplement of paper PMC5998384.

Data set [1] relates to HeLa Kyoto. As to the kind of experiment: thermal stability score vs G1/S (z-score of summed log2 fold changes over temperatures); higher = more thermally stable than in G1/S.
For data set [2], the system named is HeLa Kyoto. In words: solubility in G1/S (NP-40 vs SDS abundance) (log2 ratio); higher = more soluble. Particulars: cell cycle stage: G1/S.
For data set [3], the system named is HeLa Kyoto. In words: solubility change mitosis vs G1/S (difference of NP-40 vs SDS log2 ratios) (log2 ratio difference); higher = more soluble in mitosis.
The test system of data set [4] is HeLa Kyoto. In words: melting temperature (median over replicates), in situ; higher = more thermally stable.
[5] abbreviates: cell cycle stage: early G1 (4.5 h after nocodazole release).
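For melting temperature (median over replicates), in situ in this document: HeLa Kyoto cells synchronized by double thymidine or nocodazole block, proteins quantified by TMT10plex mass spectrometry, three independent biological replicates.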
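For solubility change mitosis vs G1/S (difference of NP-40 vs SDS log2 ratios) in this document: synchronized HeLa Kyoto cells (double thymidine block for G1/S, nocodazole release for mitosis), protein amounts in NP-40 versus SDS lysates quantified by mass spectrometry, three biological replicates.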
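For solubility in G1/S (NP-40 vs SDS abundance) in this document: HeLa Kyoto cells arrested at G1/S by double thymidine block, proteins quantified by TMT10plex mass spectrometry in mild NP-40 versus SDS extracts, three biological replicates.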
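For thermal stability score vs G1/S (z-score of summed log2 fold changes over temperatures) in this document: synchronized HeLa Kyoto cells, proteins quantified by TMT10plex mass spectrometry, three biological replicates, mitosis taken 0.5 h after nocodazole release, G1/S directly after double thymidine block.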

Turning to “MAAAEAGGDDARCVRLSAERAQALLADVDTLLFDCDGVLWRGETAVPGAPEALRALRARGKRLGFITNNSSKTRAAYAEKLRRLGFGGPAGPGASLEVFGTAYCTALYLRQRLAGAPAPKAYVLGSPALAAELEAVGVASVGVGPEPLQGEGPGDWLHAPLEPDVRAVVVGFDPHFSYMKLTKALRYLQQPGCLLVGTNMDNRLPLENGRFIAGTGCLVRAVEMAAQRQADIIGKPSRFIFDCVSQEYGINPERTVMVGDRLDTDILLGATCGLKTILTLTGVSTLGDVKNNQESDCVSKKKMVPDFYVDSIADLLPALQG [PGP]”, the thermal stability score is -0.684 in data set [1] (setting [5]) and -1.2 in data set [1] (cell cycle stage: mitosis). Moreover, the “solubility in G1/S (log2)” value in data set [2] worked out at 0.536. Besides, in data set [3], the “solubility change mitosis (log2)” value is -0.00434. The melting temperature in data set [4] (cell cycle stage: G1/S) amounted to 56.8 °C; in data set [4] (cell cycle stage: mitosis) it was 58.2 °C.

For the sequence “MAAAEGPVGDGELWQTWLPNHVVFLRLREGLKNQSPTEAEKPASSSLPSSPPPQLLTRNVVFGLGGELFLWDGEDSSFLVVRLRGPSGGGEEPALSQYQRLLCINPPLFEIYQVLLSPTQHHVALIGIKGLMVLELPKRWGKNSEFEGGKSTVNCSTTPVAERFFTSSTSLTLKHAAWYPSEILDPHVVLLTSDNVIRIYSLREPQTPTNVIILSEAEEESLVLNKGRAYTASLGETAVAFDFGPLAAVPKTLFGQNGKDEVVAYPLYILYENGETFLTYISLLHSPGNIGKLLGPLPMHPAAEDNYGYDACAVLCLPCVPNILVIATESGMLYHCVVLEGEEEDDHTSEKSWDSRIDLIPSLYVFECVELELALKLASGEDDPFDSDFSCPVKLHRDPKCPSRYHCTHEAGVHSVGLTWIHKLHKFLGSDEEDKDSLQELSTEQKCFVEHILCTKPLPCRQPAPIRGFWIVPDILGPTMICITSTYECLIWPLLSTVHPASPPLLCTREDVEVAESPLRVLAETPDSFEKHIRSILQRSVANPAFLKASEKDIAPPPEECLQLLSRATQVFREQYILKQDLAKEEIQRRVKLLCDQKKKQLEDLSYCREERKSLREMAERLADKYEEAKEKQEDIMNRMKKLLHSFHSELPVLSDSERDMKKELQLIPDQLRHLGNAIKQVTMKKDYQQQKMEKVLSLPKPTIILSAYQRKCIQSILKEEGEHIREMVKQINDIRNHVNF [NUP88]”, the results for the thermal stability score in data set [1] (setting [5]) and in data set [1] (cell cycle stage: mitosis) were -1.46 and -0.755, respectively. The “solubility in G1/S (log2)” value in data set [2] was -0.268. Besides, in data set [3], the “solubility change mitosis (log2)” value stood at 0.171. For the same sequence, the figures for the melting temperature in data set [4] (cell cycle stage: G1/S) and in data set [4] (cell cycle stage: mitosis) were 50.4 °C and 48.8 °C, respectively.

As for “MAAAEPAVLALPNSGAGGAGAPSGTVPVLFCFSVFARPSSVPHGAGYELLIQKFLSLYGDQIDMHRKFVVQLFAEEWGQYVDLPKGFAVSERCKVRLVPLQIQLTTLGNLTPSSTVFFCCDMQERFRPAIKYFGDIISVGQRLLQGARILGIPVIVTEQYPKGLGSTVQEIDLTGVKLVLPKTKFSMVLPEVEAALAEIPGVRSVVLFGVETHVCIQQTALELVGRGVEVHIVADATSSRSMMDRMFALERLARTGIIVTTSEAVLLQLVADKDHPKFKEIQNLIKASAPESGLLSKV [ISOC1]”, the thermal stability score is -1.52 in data set [1] (setting [5]) and -0.91 in data set [1] (cell cycle stage: mitosis). Besides, the “solubility in G1/S (log2)” value in data set [2] is 0.237. In data set [3], the “solubility change mitosis (log2)” value is -0.11. The melting temperature in data set [4] (cell cycle stage: G1/S) worked out at 55.3 °C; in data set [4] (cell cycle stage: mitosis) it was 55.4 °C.

With “MAAAGAPDGMEEPGMDTEAETVATEAPARPVNCLEAEAAAGAAAEDSGAARGSLQPAPAQPPGDPAAQASVSNGEDAGGGAGRELVDLKIIWNKTKHDVKFPLDSTGSELKQKIHSITGLPPAMQKVMYKGLVPEDKTLREIKVTSGAKIMVVGSTINDVLAVNTPKDAAQQDAKAEENKKEPLCRQKQHRKVLDKGKPEDVMPSVKGAQERLPTVPLSGMYNKSGGKVRLTFKLEQDQLWIGTKERTEKLPMGSIKNVVSEPIEGHEDYHMMAFQLGPTEASYYWVYWVPTQYVDAIKDTVLGKWQYF [UBFD1]”, the thermal stability score in data set [1] (setting [5]) is -0.222; in data set [1] (cell cycle stage: mitosis) it was -0.699. Also, in data set [2], the “solubility in G1/S (log2)” value is 0.522. The “solubility change mitosis (log2)” value in data set [3] is 0.0325. In addition, the melting temperature in data set [4] (cell cycle stage: G1/S) came to 51.5 °C; in data set [4] (cell cycle stage: mitosis), 52.1 °C.

Consider “MAAAGGARLLRAASAVLGGPAGRWLHHAGSRAGSSGLLRNRGPGGSAEASRSLSVSARARSSSEDKITVHFINRDGETLTTKGKVGDSLLDVVVENNLDIDGFGACEGTLACSTCHLIFEDHIYEKLDAITDEENDMLDLAYGLTDRSRLGCQICLTKSMDNMTVRVPETVADARQSIDVGKTS [FDX1]”, for which the thermal stability score is -0.691 in data set [1] (setting [5]) and -1.73 in data set [1] (cell cycle stage: mitosis). In addition, the “solubility in G1/S (log2)” value in data set [2] was 0.338. In addition, in data set [3], the “solubility change mitosis (log2)” value is -0.0683. The melting temperature turned out to be 53 °C in data set [4] (cell cycle stage: G1/S) and 53.9 °C in data set [4] (cell cycle stage: mitosis).

Regarding “MAAAGGGGGGAAAAGRAYSFKVVLLGEGCVGKTSLVLRYCENKFNDKHITTLQASFLTKKLNIGGKRVNLAIWDTAGQERFHALGPIYYRDSNGAILVYDITDEDSFQKVKNWVKELRKMLGNEICLCIVGNKIDLEKERHVSIQEAESYAESVGAKHYHTSAKQNKGIEELFLDLCKRMIETAQVDERAKGNGSSQPGTARRGVQIIDDEPQAQTSGGGCCSSG [RAB21]”, the thermal stability score in data set [1] (setting [5]) is -1.73; in data set [1] (cell cycle stage: mitosis), -1.92. Also, in data set [2], the “solubility in G1/S (log2)” value was determined as 0.158. Besides, in data set [3], the “solubility change mitosis (log2)” value was -0.0826. Besides, the figures for the melting temperature in data set [4] (cell cycle stage: G1/S) and in data set [4] (cell cycle stage: mitosis) were 60.4 °C and 60.5 °C, respectively.
